The target of this assay is T1, RSV M2 protein peptide on H-2Kd (mouse).
T1 peptide: SYIGSINNI
The assay can be described thus: in vitro CTL assay; CB6F1 splenocyte targets loaded with graded M2 peptide, E:T ratio of 50; EC50 from a 4-parameter non-linear fit; full-length, on cells.

B1: TRBV13-2 (TCR)
alpha TRAV7-3*01 CDR3: CAVNSGYNKLTF
beta TRBV13-2*01 CDR3: CASGAGTGYAEQFF
In the case of B1, the EC50 of peptide was 0.243 nM.

B2: TRBV13-1 (TCR)
alpha TRAV12-2*01 CDR3: CALRNNNNAPRF
beta TRBV13-1*02 CDR3: CASSDGGKEVFF
B2: the EC50 of peptide worked out at 0.0571 nM.
